This data set concerns the molecule itself. Nature of the data set: negative-stain electron microscopy; 0.2 mg/mL, incubated 30 min at 37 °C in 20 mM Tris-HCl pH 7.5, 100 mM NaCl, 1 mM EDTA; 1% uranyl acetate; preparations from cortex, from nucleus and from Sigma; 12–14 nm particles used for 3D reconstruction.

B1: native α-crystallin from bovine eye lens (complex)
chain 1: MDIAIQHPWFKRTLGPFYPSRLFDQFFGEGLFEYDLLPFLSSTISPYYRQSLFRTVLDSGISEVRSDRDKFVIFLDVKHFSPEDLTVKVQEDFVEIHGKHNERQDDHGYISREFHRRYRLPSNVDQSALSCSLSADGMLTFSGPKIPSGVDAGHSERAIPVSREEKPSSAPSS
chain 2: MDIAIHHPWIRRPFFPFHSPSRLFDQFFGEHLLESDLFPASTSLSPFYLRPPSFLRAPSWIDTGLSEMRLEKDRFSVNLDVKHFSPEELKVKVLGDVIEVHGKHEERQDEHGFISREFHRKYRIPADVDPLAITSSLSSDGVLTVNGPRKQASGPERTIPITREEKPAVTAAPKK
notes: αA-crystallin (HSPB4), bovine, isolated from eye lens as part of native α-crystallin; αB-crystallin (HSPB5), bovine, isolated from eye lens as part of native α-crystallin; Hetero-oligomeric mixture of αA- and αB-crystallin that was not separated; The number of subunits and the αA:αB ratio were not measured here (3:1 and about 42 monomers are cited); also called natural α-crystallin; authentic …
In the case of B1, the binding result is “binds”.

The record behind these values is paper PMC7235859, “Structural and Functional Peculiarities of α-Crystallin” (Biology, 2020).
